Measurements taken from the supplement of paper PMC9170038.

Tested on: MS2 coat protein
Assay: apparent KD of MS2 coat protein; designed switch direction (-1 OFF switch, 1 ON switch): -1; higher = weaker reporter binding
In short: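 Designed RNA switches sharing common flanks were transcribed on Illumina chips by stalled E. coli RNA polymerase. They were titrated with SNAP-549-labelled MS2 coat protein, from 0.7 or 1.5 nM doubling to 3 µM, in Tris-HCl pH 7.5 buffer with KCl, MgCl2, BSA, DTT, tRNA and Tween-20. Titrations ran without input, with 200 uM small-molecule ligand, or with an oligonucleotide input. The apparent KD of each design is the median over its clusters, after curve-fitting of normalised cluster fluorescence.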

[1] = Eterna round: R95, input ligand: microRNA oligo, concentration not stated
[2] = input ligand: microRNA oligo, concentration not stated
[3] = Eterna round: R95, input ligand: FMN 200 uM
[4] = Eterna round: R95, input ligand: none

| Sequence | apparent KD of MS2 coat protein [1] [nM] | apparent KD of MS2 coat protein (input ligand: FMN 200 uM) [nM] | apparent KD of MS2 coat protein [2] [nM] | apparent KD of MS2 coat protein (input ligand: none) [nM] | apparent KD of MS2 coat protein [3] [nM] | apparent KD of MS2 coat protein [4] [nM] |
| --- | --- | --- | --- | --- | --- | --- |
| UCGAGGUCAGGAUAUACAUGAGGAUCACCCAUGUUGAGAGAAGGUAGGAAAAGAGUAGGUAGAAGGGACGAGAG [JR_Exclu3_Sub046] (puzzle: Exclusion 3) | 26.1 |  |  |  |  |  |
| ACAUGAGGAUCACCCAUGUGAAAAGAAUGGCUGACACAGAGAUAGGAUAUAUGUGCAUAUCAAACAUAGAAGGGUCAUAACUGG [Deportation 84 - Jieux - Exclusion NG 3] (Eterna round: R96, puzzle: Exclusion NG 3) |  | 28.4 | 29.4 | 30.5 |  |  |
| CGUGCGUAUGUGAGGAUAUGCUGGUCCUUGGAUCGGCAGAAGGCACAUGAGGAUCACCCAUGUGGUGUCGUUCA [salish99_Bmod_ex4_091] (puzzle: Brourd's mod of Exclusion 4) | 108 |  |  |  | 31.3 | 173 |
| UCGAGGUCAGGAUAUACAUGAGGAUCACCCAUGUGGAGAUAAGGUAGGAAAAGAGUAGGUAGAAGGGACGAGAG [JR_Exclu3_Sub048] (puzzle: Exclusion 3) | 40.6 |  |  |  | 61.4 | 57.6 |
| AAAAGACAUGAGGAUCACCCAUGUGAGGAUAUUGGAAGAAAGAAAAGAAAGAAAGAAACGAGAAGGCACAAAAG [Exclusion] (puzzle: Exclusion 1) | 60.9 |  |  |  | 68.2 | 51.9 |
| UAAGAAUACUGAGGAUAUGCUAGUUUAUCUCAGGCAGAAGGCGGACUCAACAUGAGGAUCACCCAUGUAAGACGGGUACUAGAU [Ex NG1 #14] (Eterna round: R96, puzzle: Exclusion NG 1) |  | 131 | 92.2 | 89 |  |  |
| AUAUGUAACUAGGAUAUCAGCAUACUUCAAUGUUGAGAAGGAGUUACAUGAGGAUCACCCAUGUAUCCAACAUG [Exclusion 6 - 3] (Eterna round: R96, puzzle: Exclusion 6) |  | 73.3 | 56.7 | 67.1 |  |  |
| CUUAUGUGAGGAUAUCAGUAGUAAUACAAUAGUAUUACUACUGAGAAGGCACAUGAGGAUCACCCAUGUUCCUU [Exclusion 4 - Mod Omei Ex4 344 mod v.1] (puzzle: Exclusion 4) | 27.5 |  |  |  |  |  |
| AUAACAAGCUUUUUGUUCGUAGAACAUGAUGCUCGAGUCACAUGAGGAUCACCCAUGUCAUCCAGAUUGAUAGUUGA [JR_SV3TOV2_Sub060] (puzzle: Sensor v3, turn-off variant 2) | 51.2 |  |  |  | 39.5 | 40.3 |
| CUGAGUCAAGGAUAUACAUGAGGAUCACCCAUGUAAAGUAGCUUGCGUACAGGCAGAUGUAGAAGGUGAUUCGG [Mod of JL 9 - Jieux - Exclusion 3] (Eterna round: R97, puzzle: Exclusion 3) |  | 100 |  | 90.7 |  |  |
| AGAGCUGCCCAUGACCGCAAGCUUUUUGCUUGUCUUACCACAUGAGGAUCACCCAUGUGACAUGGGCUCCUUAUAAA [Azavees] (puzzle: Sensor v3, turn-off variant 2) | 9.41 |  |  |  | 13.9 | 13.3 |
| UUAUAUAGAGUGAGGAUAUGCUGGUCCUUGGAUCAGCAGAAGGCACAUGAGGAUCACCCAUGUAAUAUAUUAUU [Mat - Exclusion 4 - JL Mod - D37] (puzzle: Brourd's mod of Exclusion 4) | 21.1 |  |  |  |  |  |
| GGGCGUAGGCAGGAUAUGUAAGGCUGUUGGUCUAUAGAAGGGUUUACAUGAGGAUCACCCAUGUGACCGAACCG [Eternabot (L2) Solution 16] (Eterna round: R97, puzzle: Exclusion 6) |  | 18.2 |  | 16.4 |  |  |
| AAAUGGCAAGGAUAUACAGUAAUGAGGCUUAUGUCCGCUAAACAUGAGGAUCACCCAUGUAGAAGGUGCAAAGA [Maarear] (Eterna round: R97, puzzle: Exclusion 2) |  | 69.1 |  | 42.4 |  |  |
| CUCGGACAUGAGGAUCACCCAUGUGAGGAUAUGGCGCUAUCGUCAUUAGACGAUUGCGCCAGAAGGCACAAAUG [LRO-Excl1-27] (puzzle: Exclusion 1) | 80.7 |  |  |  |  |  |
| ACUAGAUGAGGAUAUGCAUAUUUUCGUGUUCUUCUAGAUUAACAUGAGGAUCACCCAUGUAGAAGGCGUCUGGU [Exclusion 2 - 19] (puzzle: Exclusion 2) | 29.7 |  |  |  |  |  |
| UAUUCGCGAGGAUAUGCAGUCGAGUCCAUUACGUGUCUGGGACUUGAGGAUCACCCAAGUAGAAGGCGUCUCAG [salish99_ex2_r4_641] (Eterna round: R97, puzzle: Exclusion 2) |  | 160 |  | 194 |  |  |

| Sequence | apparent KD of MS2 coat protein [1] [nM] | apparent KD of MS2 coat protein (input ligand: FMN 200 uM) [nM] | apparent KD of MS2 coat protein [2] [nM] | apparent KD of MS2 coat protein (input ligand: none) [nM] | apparent KD of MS2 coat protein [3] [nM] | apparent KD of MS2 coat protein [4] [nM] |
| --- | --- | --- | --- | --- | --- | --- |
| AAUAAUAAUGUGAGGAUAUCUAGAGCCUCGGCUCUAGAGAAGGCACAUGAGGAUCACCCAUGUCUCAAUAAUAA [BmEx4/2-E5] (Eterna round: R97, puzzle: Brourd's mod of Exclusion 4) |  | 307 |  | 52.8 |  |  |
| GGUCGGCGAGGAUAUACAUGAGGAUCACCCAUGUGAGAUAGUGCACGCGUACGUGUACGUAGAAGGCGCUGACG [JL-ex3-3.25 salish99 mod] (puzzle: Exclusion 3) | 12.4 |  |  |  | 26.1 | 8.3 |
| UGAUCUAGCGGAGGAUAUACAUGAGGAUCACCCAUGUAUAGUCUAUGACCGUAGUCGUGGACCGUGUAGAAGGCCGCUAGAUCU [JL ENG2 3.77] (Eterna round: R96, puzzle: Exclusion NG 2) |  | 16.5 | 11.4 | 11 |  |  |
| AUGAGGUUAGGAUAUACAUGAGGAUCACCCAUGUUGGAGGGUAAGGUAGGAGAAGAAAGUAGAAGGAACGGAGC [JR_Exclu3_Sub058] (puzzle: Exclusion 3) | 82.5 |  |  |  | 68.4 | 99.6 |
| AAACCUAUAGGAUAUACAUGAGGAUCACCCAUGUUGCGAUUUUUUAGGUAACAGAUCCGUAGAAGGGUAGGUCA [Reinesce] (puzzle: Exclusion 3) | 38.1 |  |  |  |  |  |
| GCAAGAAUAGGAUAUACACCAUGCCAGCUUCUAUACAACGCACAUGAGGAUCACCCAUGUAGAAGGGUUCUCUG [Exclusion-2-#12] (Eterna round: R97, puzzle: Exclusion 2) |  | 225 |  | 262 |  |  |
| UAACAUGUAGAAGGAUAUCUGCACGUUUAGUGCAGAGAAGGUCUAACAUGAGGAUCACCCAUGUAGAUCAUUAAUUAAUUAAUU [ENG1/8-B2] (Eterna round: R96, puzzle: Exclusion NG 1) |  | 15.8 | 9.45 | 12.9 |  |  |
| CUGUGCACGCUGCGAUCCUACAUGAGGAUCACCCAUGUGGUCUGGUGGCGUGGGUCACCGGACUUGGCUCGUCUUGA [salish99_S_TOV1_R5_070] (Eterna round: R97, puzzle: Sensor, turn-off variant 1) |  | 147 |  | 156 |  |  |
| UUAAAUCAUGUAGGAUAUGCGUGGCGAAGCUAUGCAGAAGGACAUGAGGAUCACCCAUGUGCUUCCGUCUGAGAACAGACGGUA [Mat - Exclusion NG 1 - Mod of JL - D12] (Eterna round: R96, puzzle: Exclusion NG 1) |  | 91.8 | 63.9 | 93.1 |  |  |
| AGGUUGUGAGGAUAUUAGUUAUAUGUUUGGAGGUGUAUGGCUGAGAAGGCACAUGAGGAUCACCCAUGUAGAUC [JR_Ex4_Sub049] (Eterna round: R97, puzzle: Exclusion 4) |  | 301 |  | 175 |  |  |
| UUAUUACAAGCAAGAUCUCACAUGAGGAUCACCCAUGUGCUCGUCUUAUAAGGUACUGUGACGAAAGUCACGGUACC [Eli 100 v1] (Eterna round: R97, puzzle: Sensor, turn-off variant 1) |  | 14.8 |  | 17.3 |  |  |
| AUUUAAUUUAAUAAGAUCACAUGAGGAUCACCCAUGUAUAUAUAGGAUAUCAGCUCGAUUAGAGCUGAGAAGGAUAUAUACUAU [ExNG3/7-B1] (Eterna round: R96, puzzle: Exclusion NG 3) |  |  | 422 |  |  |  |
| UUUUAUUGCAAGGAUAUGCAAUUUAUUAUUUAUGCAGAAGGUGCUACAUGAGGAUCACCCAUGUUUCUGGGUUU [JR_E6_Sub044] (puzzle: Exclusion 6) | 91.8 |  |  |  | 253 | 86.7 |
| GUCAGCUCGUCAGGAUAUAUAUACAUGAGGAUCACCCAUGUAAGAUCAGCACUUCGGUGCAGUAUAUAGAAGGGACGAGCUGAC [ENG2/13-B1] (Eterna round: R96, puzzle: Exclusion NG 2) |  | 40.6 | 13.7 | 29.1 |  |  |
| GAGAAGGUAGGAUAUACGAAUAAAAAGGGUAGAAUAAUAACACAUGAGGAUCACCCAUGUAGAAGGACCAAGAG [Mat - Exclusion 2 - Mod of my Tesla design - D20] (puzzle: Exclusion 2) | 25.1 |  |  |  | 45 | 26.5 |
| UUAAAUCAUGUAGGAUAUGCGUGGCGAAGCUAUGCAGAAGGACAUGAGGAUCACCCAUGUUCUUCCGUCUGCGUACAGAUGGAA [JL ENG1 1.08] (Eterna round: R96, puzzle: Exclusion NG 1) |  | 271 | 33.8 | 36.3 |  |  |
| GCAGCAUAGUUUACUAGCUGUUACAUGAGGAUCACCCAUGUUCAGGAUAUGGUCUGGAUUACAGGCCAGAAGGGAACAAGCUGC [Eli exng3 - 029] (Eterna round: R96, puzzle: Exclusion NG 3) |  |  | 7.99 |  |  |  |
